# Results reported in US20030228623A1.
# Where “and” joins values, the source holds several entries; their conditions need not be identical. Equal entries are not always repeated.
# Assays:
# [1] = target: modified streptavidin Stv-38; test: phage on microtiter wells coated with Stv-38, washed, eluted with 3 mM biotin, plated on TG1 cells
# [2] = target: streptavidin (streptavidin-coated magnetic beads, Dynal) (UniProt P22629); test: phage incubated with streptavidin-coated beads, washed, released with Factor Xa, plated on TG1 cells
# [3] = target: modified streptavidin Stv-38; test: phage on microtiter wells coated with Stv-38, washed, eluted with 3 mM biotin, plated on TG1 cells; input 159,500
# [4] = target: modified streptavidin Stv-38; test: phage on microtiter wells coated with Stv-38, washed, eluted with 3 mM biotin, plated on TG1 cells; input 1,590,500
# [5] = target: streptavidin (streptavidin-coated magnetic beads, Dynal) (UniProt P22629); test: phage incubated with streptavidin-coated beads, washed, released with Factor Xa, plated on TG1 cells; 97,500 phage used
# [6] = target: streptavidin (streptavidin-coated magnetic beads, Dynal) (UniProt P22629); test: streptavidin-coated beads capture; phage from host cells grown without added biotin
# [7] = target: streptavidin (streptavidin-coated magnetic beads, Dynal) (UniProt P22629); test: streptavidin-coated beads capture; phage from host cells grown without added biotin; 109,000 phage used
# [8] = target: modified streptavidin Stv-38; test: phage on microtiter wells coated with Stv-38, washed, eluted with 3 mM biotin, plated on TG1 cells; input 250,000
# [9] = target: streptavidin (streptavidin-coated magnetic beads, Dynal) (UniProt P22629); test: phage incubated with streptavidin-coated beads, washed, released with Factor Xa, plated on TG1 cells; 96,500 phage used
# [10] = target: streptavidin (streptavidin-coated magnetic beads, Dynal) (UniProt P22629); test: spores (in vivo), streptavidin-coated magnetic beads, washed, plated
# [11] = target: streptavidin (streptavidin-coated magnetic beads, Dynal) (UniProt P22629); test: spores (in vivo), streptavidin-coated magnetic beads, washed, plated; input 843,900
# [12] = target: streptavidin (streptavidin-coated magnetic beads, Dynal) (UniProt P22629); test: spores incubated in vitro with BirA, biotin and ATP, then streptavidin-coated beads
# [13] = target: streptavidin (streptavidin-coated magnetic beads, Dynal) (UniProt P22629); test: spores incubated in vitro with BirA, biotin and ATP, then streptavidin-coated beads; input 417,600
# [14] = target: streptavidin (streptavidin-coated magnetic beads, Dynal) (UniProt P22629); test: spores biotinylated in vivo, streptavidin-coated magnetic beads, washed, plated
# [15] = target: streptavidin (streptavidin-coated magnetic beads, Dynal) (UniProt P22629); test: spores biotinylated in vivo, streptavidin-coated magnetic beads, washed, plated; input 1,075,900
# [16] = target: streptavidin (streptavidin-coated magnetic beads, Dynal) (UniProt P22629); test: spores incubated in vitro with BirA, biotin and ATP, then streptavidin-coated beads; input 919,600
# [17] = target: streptavidin (streptavidin-coated magnetic beads, Dynal) (UniProt P22629); test: spores biotinylated in vivo, streptavidin-coated magnetic beads, washed, plated; input 10,000
# [18] = target: streptavidin (streptavidin-coated magnetic beads, Dynal) (UniProt P22629); test: spores (in vivo), streptavidin-coated magnetic beads, washed, plated; input 814,900
# [19] = target: streptavidin (streptavidin-coated magnetic beads, Dynal) (UniProt P22629); test: spores incubated in vitro with BirA, biotin and ATP, then streptavidin-coated beads; input 234,900
# [20] = target: streptavidin (streptavidin-coated magnetic beads, Dynal) (UniProt P22629); test: spores biotinylated in vivo, streptavidin-coated magnetic beads, washed, plated; input 919,300
# [21] = target: streptavidin (streptavidin-coated magnetic beads, Dynal) (UniProt P22629); test: spores incubated in vitro with BirA, biotin and ATP, then streptavidin-coated beads; input 176,900
# Chain of bacteriophage G (M13 phage displaying on pIII the control peptide with the lysine recognized by BirA replaced by glycine) (P69168 19-424): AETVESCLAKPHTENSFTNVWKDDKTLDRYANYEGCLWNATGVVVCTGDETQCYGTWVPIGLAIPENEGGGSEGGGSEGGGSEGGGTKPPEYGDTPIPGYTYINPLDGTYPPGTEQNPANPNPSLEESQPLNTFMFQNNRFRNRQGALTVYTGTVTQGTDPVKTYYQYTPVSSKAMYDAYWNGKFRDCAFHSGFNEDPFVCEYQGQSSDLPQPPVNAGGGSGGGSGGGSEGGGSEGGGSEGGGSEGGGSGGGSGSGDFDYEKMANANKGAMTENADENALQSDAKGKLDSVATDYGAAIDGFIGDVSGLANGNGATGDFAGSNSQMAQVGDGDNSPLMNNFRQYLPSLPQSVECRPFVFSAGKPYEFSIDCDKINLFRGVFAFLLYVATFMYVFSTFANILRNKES
# Chain of bacteriophage K (M13 phage displaying on coat protein pIII the 33-residue peptide recognized by BirA) (P69168 19-424): as above
# Chain of spores of PY79-BirA-1G (Fusion 1: peptide-G added to the C-terminus of CotB following residue 275) (P07789 1-275): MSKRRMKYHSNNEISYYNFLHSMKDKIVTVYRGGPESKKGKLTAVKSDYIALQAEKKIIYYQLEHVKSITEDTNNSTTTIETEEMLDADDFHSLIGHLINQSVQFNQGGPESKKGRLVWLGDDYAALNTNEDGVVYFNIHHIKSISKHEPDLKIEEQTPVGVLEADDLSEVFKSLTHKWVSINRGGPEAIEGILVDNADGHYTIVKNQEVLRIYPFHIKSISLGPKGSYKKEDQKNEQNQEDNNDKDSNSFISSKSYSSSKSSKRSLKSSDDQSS
# Chain of spores of PY79-BirA-1K (Fusion 1: peptide-K added to the C-terminus of CotB following residue 275) (P07789 1-275): as above
# Chain of streptavidin (streptavidin-coated magnetic beads, Dynal) (P22629 37-163 limits assumed): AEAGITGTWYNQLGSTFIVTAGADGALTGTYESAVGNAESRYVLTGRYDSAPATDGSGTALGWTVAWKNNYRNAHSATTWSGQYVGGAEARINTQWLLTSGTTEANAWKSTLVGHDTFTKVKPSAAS
# Chain of spores of PY79-BirA-3K (Fusion 3: Fusion 1 with peptide-K, with the last 41 amino acids of CotB added to its C-terminus) (P07789 whole entry, the tested form may be a part): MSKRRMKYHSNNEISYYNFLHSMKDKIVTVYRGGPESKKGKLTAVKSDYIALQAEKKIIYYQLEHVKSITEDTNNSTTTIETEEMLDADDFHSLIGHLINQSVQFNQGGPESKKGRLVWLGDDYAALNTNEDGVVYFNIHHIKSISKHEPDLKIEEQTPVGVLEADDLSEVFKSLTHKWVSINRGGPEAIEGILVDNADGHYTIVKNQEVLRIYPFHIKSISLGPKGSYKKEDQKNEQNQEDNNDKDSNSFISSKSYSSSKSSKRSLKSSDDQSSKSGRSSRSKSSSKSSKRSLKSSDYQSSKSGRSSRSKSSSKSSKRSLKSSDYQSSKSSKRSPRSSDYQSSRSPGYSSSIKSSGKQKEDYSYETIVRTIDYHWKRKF
# Chain of spores of PY79-BirA-3G (Fusion 3: Fusion 1 with peptide-G, with the last 41 amino acids of CotB added to its C-terminus) (P07789 whole entry, the tested form may be a part): as above
# Chain of spores of PY79-BirA-2K (Fusion 2: peptide-K at the amino end of the first 275 amino acids of CotB) (P07789 1-275): as the sequence (P07789 1-275) above
# Chain of spores of PY79-BirA-2G (Fusion 2: peptide-G at the amino end of the first 275 amino acids of CotB) (P07789 1-275): as above
substance,measurement,setting,value
bacteriophage G (M13 phage displaying on pIII the control peptide with the lysine recognized by BirA replaced by glycine) (from UniProt P69168 19-424),Ratio (%),[1],0.002% and 0.004%
same,% bound,[2],0.013%
same,Bound,[3],7 phage
same,Bound,[4],27 phage
same,# of bound phage able to bind TG1 cells,[5],13 phage
bacteriophage K (M13 phage displaying on coat protein pIII the 33-residue peptide recognized by BirA) (from UniProt P69168 19-424),% bound,[6],0.78%
same,Ratio (%),[1],0.504% and 0.852%
same,% bound,[2],1.11%
same,# of bound phage,[7],850 phage
same,Bound,[8],2130 phage
same,# of bound phage able to bind TG1 cells,[9],1080 phage
spores of PY79-BirA-1G (Fusion 1: peptide-G added to the C-terminus of CotB following residue 275) (from UniProt P07789 1-275),Ratio (%),[10],0.0118%
same,Out (#),[11],100 spores
same,Ratio (%),[12],0.299%
same,Out,[13],1250 spores
spores of PY79-BirA-1K (Fusion 1: peptide-K added to the C-terminus of CotB following residue 275) (from UniProt P07789 1-275),Ratio (%),[14],0.0279%
same,Ratio (%),[12],3.26%
same,Out (#),[15],300 spores
same,Out,[16],30000 spores
spores of PY79-BirA-2G (Fusion 2: peptide-G at the amino end of the first 275 amino acids of CotB) (from UniProt P07789 1-275),Ratio (%),[10],0%
spores of PY79-BirA-2K (Fusion 2: peptide-K at the amino end of the first 275 amino acids of CotB) (from UniProt P07789 1-275),Ratio (%),[14],9.2%
same,Out (#),[17],920 spores
"spores of PY79-BirA-3G (Fusion 3: Fusion 1 with peptide-G, with the last 41 amino acids of CotB added to its C-terminus) (from UniProt P07789 1-275; P07789 340-380)",Ratio (%),[10],0.0049%
same,Out (#),[18],240 spores
same,Ratio (%),[12],0.106%
same,Out,[19],250 spores
"spores of PY79-BirA-3K (Fusion 3: Fusion 1 with peptide-K, with the last 41 amino acids of CotB added to its C-terminus) (from UniProt P07789 1-275; P07789 340-380)",Ratio (%),[14],0.0283%
same,Ratio (%),[12],0.071%
same,Out (#),[20],260 spores
same,Out,[21],125 spores
